The target in series [1] is T1, N39 (HIV-1, N-terminal acetyl (Ac-); C-terminal amide (-NH2)).
T1 peptide: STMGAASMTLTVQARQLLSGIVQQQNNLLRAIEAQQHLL
Put plainly: circular dichroism of the 1:1 mixture with N39, 10 µM each in PBS pH 7.2. (In general: CD spectra are sensitive to the conformation of chiral molecules.)

The target of series [2] is T1, N39. In words: circular dichroism temperature scan at 220 nm of the 1:1 mixture with N39, 10 µM each in PBS pH 7.2.
The target in series [3] is gp41 of the envelope protein (Env) of HIV-1 strain HXB2 (HIV-1 strain HXB2, UniProt P04578 33-856). In words: cell-based or functional assay.
Series [4] concerns the target gp41 of the envelope protein (Env) of the D36G mutant of HIV-1 strain NL4-3 (HIV-1 strain NL4-3). In words: cell-based or functional assay.
Series [5] addresses gp41 of the envelope protein of HIV-1 strain JRCSF (HIV-1 strain JRCSF). Put plainly: cell-based or functional assay.
In series [6] the target is T1, N39. Put plainly: circular dichroism temperature scan at 220 nm of the 1:1 mixture with N39, 10 µM each in PBS pH 7.2; difference against LP-52.

Values joined by “and” are separate entries in the source; they are usually repeats but may differ in a detail not shown here. Equal entries are not always repeated. Ends that are not written are not given here. * marks the point of attachment. Stearoyl = CCCCCCCCCCCCCCCCCC(=O)*; Palmitoyl = CCCCCCCCCCCCCCCC(=O)*

Regarding Ac-WEQKIEELLKKAEEQQKKNEEELKKLEK(Palmitoyl)-NH2 [LP-52], the “helix content of the complex” value in the series with N39 [1] was 63.8%. Further, the “Tm value of the complex” value with N39 [2] is 79.1 °C.

B1: LP-65 (peptide)
peptide: Ac-IEELLKKAEEQQKKNEEELKKLEK(Palmitoyl)-NH2
SMILES: CCCCCCCCCCCCCCCC(=O)NCCCC[C@H](NC(=O)[C@H](CCC(=O)O)NC(=O)[C@H](CC(C)C)NC(=O)[C@H](CCCCN)NC(=O)[C@H](CCCCN)NC(=O)[C@H](CC(C)C)NC(=O)[C@H](CCC(=O)O)NC(=O)[C@H](CCC(=O)O)NC(=O)[C@H](CCC(=O)O)NC(=O)[C@H](CC(N)=O)NC(=O)[C@H](CCCCN)NC(=O)[C@H](CCCCN)NC(=O)[C@H](CCC(N)=O)NC(=O)[C@H](CCC(N)=O)NC(=O)[C@H](CCC(=O)O)NC(=O)[C@H](CCC(=O)O)NC(=O)[C@H](C)NC(=O)[C@H](CCCCN)NC(=O)[C@H](CCCCN)NC(=O)[C@H](CC(C)C)NC(=O)[C@H](CC(C)C)NC(=O)[C@H](CCC(=O)O)NC(=O)[C@H](CCC(=O)O)NC(=O)[C@@H](NC(C)=O)[C@@H](C)CC)C(N)=O
notes: N-terminally truncated, based on LP-52; 24 amino acids
Consider B1, for which the “helix content of the complex” value with N39 [1] is 63%. Moreover, the “Tm value of the complex” value in the series with N39 [2] was > 70 °C and 72.1 °C.

B2: LP-89 (peptide)
peptide: Ac-KIEELLKKAEEQQKKNEEELKKLEK(Stearoyl)-NH2
SMILES: CCCCCCCCCCCCCCCCCC(=O)NCCCC[C@H](NC(=O)[C@H](CCC(=O)O)NC(=O)[C@H](CC(C)C)NC(=O)[C@H](CCCCN)NC(=O)[C@H](CCCCN)NC(=O)[C@H](CC(C)C)NC(=O)[C@H](CCC(=O)O)NC(=O)[C@H](CCC(=O)O)NC(=O)[C@H](CCC(=O)O)NC(=O)[C@H](CC(N)=O)NC(=O)[C@H](CCCCN)NC(=O)[C@H](CCCCN)NC(=O)[C@H](CCC(N)=O)NC(=O)[C@H](CCC(N)=O)NC(=O)[C@H](CCC(=O)O)NC(=O)[C@H](CCC(=O)O)NC(=O)[C@H](C)NC(=O)[C@H](CCCCN)NC(=O)[C@H](CCCCN)NC(=O)[C@H](CC(C)C)NC(=O)[C@H](CC(C)C)NC(=O)[C@H](CCC(=O)O)NC(=O)[C@H](CCC(=O)O)NC(=O)[C@@H](NC(=O)[C@H](CCCCN)NC(C)=O)[C@@H](C)CC)C(N)=O
As to B2, the “Tm value of the complex” value in the series with N39 [2] was 70 °C.
Ac-IEELLKKAEEQQKKNEEELKKLEK(Stearoyl)-NH2 [LP-90]: in the series with N39 [2], the “Tm value of the complex” value is 71.1 °C.

B3: LP-50 (peptide)
peptide: Ac-YTSLIEELIKKSEEQQKKNEEELKKLEK(Palmitoyl)-NH2
SMILES: CCCCCCCCCCCCCCCC(=O)NCCCC[C@H](NC(=O)[C@H](CCC(=O)O)NC(=O)[C@H](CC(C)C)NC(=O)[C@H](CCCCN)NC(=O)[C@H](CCCCN)NC(=O)[C@H](CC(C)C)NC(=O)[C@H](CCC(=O)O)NC(=O)[C@H](CCC(=O)O)NC(=O)[C@H](CCC(=O)O)NC(=O)[C@H](CC(N)=O)NC(=O)[C@H](CCCCN)NC(=O)[C@H](CCCCN)NC(=O)[C@H](CCC(N)=O)NC(=O)[C@H](CCC(N)=O)NC(=O)[C@H](CCC(=O)O)NC(=O)[C@H](CCC(=O)O)NC(=O)[C@H](CO)NC(=O)[C@H](CCCCN)NC(=O)[C@H](CCCCN)NC(=O)[C@@H](NC(=O)[C@H](CC(C)C)NC(=O)[C@H](CCC(=O)O)NC(=O)[C@H](CCC(=O)O)NC(=O)[C@@H](NC(=O)[C@H](CC(C)C)NC(=O)[C@H](CO)NC(=O)[C@@H](NC(=O)[C@H](Cc1ccc(O)cc1)NC(C)=O)[C@@H](C)O)[C@@H](C)CC)[C@@H](C)CC)C(N)=O
notes: LP-40 with EE**KK ion pairs introduced; also called P50 with C16
For B3, the “IC50 for inhibiting cell fusion (HXB2-cell fusion)” value in series [3] came to 21 pM. Besides, the “IC50 for inhibiting pseudovirus (entry of NL4-3)” value in series [4] stood at 7 pM. Further, the “IC50 for inhibiting replicative virus (replication of JRCSF)” value in series [5] is 23 pM. The “Tm value of the complex” value in the series with N39 [2] came to 63.3 °C.

B4: LP-92 (peptide)
peptide: Ac-IEELLKKAEEQQKKNEEELKK(Stearoyl)-NH2
SMILES: CCCCCCCCCCCCCCCCCC(=O)NCCCC[C@H](NC(=O)[C@H](CCCCN)NC(=O)[C@H](CC(C)C)NC(=O)[C@H](CCC(=O)O)NC(=O)[C@H](CCC(=O)O)NC(=O)[C@H](CCC(=O)O)NC(=O)[C@H](CC(N)=O)NC(=O)[C@H](CCCCN)NC(=O)[C@H](CCCCN)NC(=O)[C@H](CCC(N)=O)NC(=O)[C@H](CCC(N)=O)NC(=O)[C@H](CCC(=O)O)NC(=O)[C@H](CCC(=O)O)NC(=O)[C@H](C)NC(=O)[C@H](CCCCN)NC(=O)[C@H](CCCCN)NC(=O)[C@H](CC(C)C)NC(=O)[C@H](CC(C)C)NC(=O)[C@H](CCC(=O)O)NC(=O)[C@H](CCC(=O)O)NC(=O)[C@@H](NC(C)=O)[C@@H](C)CC)C(N)=O
B4: the “Tm value of the complex” value with N39 [2] is 55.1 °C.
With Ac-YTSLIHSLIEESQNQQEKNEQELLELDK (not fully specified (residue 28, C-terminus), also called T-20-based lipopeptide) [LP-40], the “helix content of the complex” value in the series with N39 [1] amounted to 57.7%. Besides, the “Tm value of the complex” value with N39 [2] amounted to 51.3 °C.
Consider Ac-WEQKIEELLKKAEEQQKKNEEELKK(Stearoyl)-NH2 [LP-91], for which, in the series with N39 [2], the “Tm value of the complex” value came to 61 °C.

B5: LP-69 (peptide)
peptide: Ac-IEELLKKAEEQQKKNEEELKK(Palmitoyl)-NH2
SMILES: CCCCCCCCCCCCCCCC(=O)NCCCC[C@H](NC(=O)[C@H](CCCCN)NC(=O)[C@H](CC(C)C)NC(=O)[C@H](CCC(=O)O)NC(=O)[C@H](CCC(=O)O)NC(=O)[C@H](CCC(=O)O)NC(=O)[C@H](CC(N)=O)NC(=O)[C@H](CCCCN)NC(=O)[C@H](CCCCN)NC(=O)[C@H](CCC(N)=O)NC(=O)[C@H](CCC(N)=O)NC(=O)[C@H](CCC(=O)O)NC(=O)[C@H](CCC(=O)O)NC(=O)[C@H](C)NC(=O)[C@H](CCCCN)NC(=O)[C@H](CCCCN)NC(=O)[C@H](CC(C)C)NC(=O)[C@H](CC(C)C)NC(=O)[C@H](CCC(=O)O)NC(=O)[C@H](CCC(=O)O)NC(=O)[C@@H](NC(C)=O)[C@@H](C)CC)C(N)=O
notes: Residues 1-21 follow from the statement that LP-69 is LP-65 (24 residues) without its C-terminal LEK
Consider B5, for which the “Tm value of the complex” value with N39 [2] was found to be 51 °C. In addition, the “Tm value lower than that of the LP-52 by” value with N39 [6] came to 28.1 °C.
In the case of Ac-WEQKIEELLKKAEEQQKKNEEELKKLEK(Stearoyl)-NH2 [LP-80], the “IC50 for inhibiting HIV-1 strain NL4-3” value in series [4] was 2 pM. Further, the “IC50 for inhibiting HIV-1 strain JRCSF” value in series [5] stood at 2 pM. Further, the “Tm value of the complex” value with N39 [2] amounted to 79 °C.

These data come from patent US20210277068A1 (SHANXI KANGBAO BIOLOGICAL PRODUCT, published 2021).
